According to patent US20240158477A1 (BIODURO JIANGSU, published 2024):

Columns and labels:
Test in all cases: cell-based or functional assay
[1] = target: SARS-CoV-2 S protein of variant B1.1.7
[2] = target: SARS-CoV-2 S protein of variant B.1.351
[3] = target: SARS-CoV-2 S protein of variant P.1
[4] = target: SARS-CoV-2 S protein of variant B.1.525

B1: Fc tagged nanobody VHH60 (Fc fusion)
chain: EVQLVESGGGLVQPGGSLRLSCAASGRTFRVNLMGWFRQAPGKGRELVASINGFDDITYYPDSVEGRFTISRDNAKRMVYLQMNSLRAEDTAVYYCAAYDSDYDGRLFNYWGQGTQVTVSSGSGGGGSGGGGS
[1]
  IC50, pseudoviral entry assay (CaCO2 cells): 31.8 nM
[2]
  IC50, pseudoviral entry assay (CaCO2 cells): 18.3 nM
[3]
  IC50, pseudoviral entry assay (CaCO2 cells): 16.3 nM
[4]
  IC50, pseudoviral entry assay (CaCO2 cells): 15 nM
